Paper PMC9890227

Key:
Test in all cases: EMSA
[1] = target: MutLbeta (MLH1-PMS1) (Homo sapiens, UniProt P40692;P54277 1-756;1-932)
[2] = target: MutLgamma (MLH1-MLH3) (Homo sapiens, UniProt P40692;Q9UHC1 1-756;1-1453)
[3] = target: MutSbeta (MSH2-MSH3) (Homo sapiens, UniProt P43246;P20585 1-934;1-1137)

Measured: binding result

Sequence of MutSbeta (MSH2-MSH3) (P43246 whole entry, chain 1 of 2): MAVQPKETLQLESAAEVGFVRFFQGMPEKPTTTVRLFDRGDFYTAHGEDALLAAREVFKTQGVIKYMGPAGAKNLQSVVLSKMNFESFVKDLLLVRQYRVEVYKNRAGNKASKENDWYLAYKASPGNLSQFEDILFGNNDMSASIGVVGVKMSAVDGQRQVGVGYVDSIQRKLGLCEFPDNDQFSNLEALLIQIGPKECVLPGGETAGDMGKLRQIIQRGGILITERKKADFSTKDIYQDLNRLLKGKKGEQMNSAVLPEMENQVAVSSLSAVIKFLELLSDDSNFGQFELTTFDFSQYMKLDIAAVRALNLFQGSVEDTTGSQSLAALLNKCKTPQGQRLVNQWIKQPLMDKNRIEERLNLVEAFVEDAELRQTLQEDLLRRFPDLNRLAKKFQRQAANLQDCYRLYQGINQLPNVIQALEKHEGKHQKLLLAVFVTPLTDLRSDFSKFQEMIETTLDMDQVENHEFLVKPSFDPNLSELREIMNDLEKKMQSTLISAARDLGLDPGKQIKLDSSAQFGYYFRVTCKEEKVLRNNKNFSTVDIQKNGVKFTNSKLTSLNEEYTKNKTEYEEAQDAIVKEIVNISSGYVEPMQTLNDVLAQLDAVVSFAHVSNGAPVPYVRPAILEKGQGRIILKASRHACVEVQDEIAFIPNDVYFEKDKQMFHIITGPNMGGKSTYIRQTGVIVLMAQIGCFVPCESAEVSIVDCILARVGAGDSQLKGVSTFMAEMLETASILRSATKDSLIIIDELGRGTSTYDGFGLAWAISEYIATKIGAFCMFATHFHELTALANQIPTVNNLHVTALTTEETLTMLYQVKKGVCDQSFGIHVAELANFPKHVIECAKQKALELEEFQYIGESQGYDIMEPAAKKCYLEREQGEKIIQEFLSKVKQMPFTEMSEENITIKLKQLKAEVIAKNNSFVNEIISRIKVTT
Sequence of MutSbeta (MSH2-MSH3) (P20585 whole entry, chain 2 of 2): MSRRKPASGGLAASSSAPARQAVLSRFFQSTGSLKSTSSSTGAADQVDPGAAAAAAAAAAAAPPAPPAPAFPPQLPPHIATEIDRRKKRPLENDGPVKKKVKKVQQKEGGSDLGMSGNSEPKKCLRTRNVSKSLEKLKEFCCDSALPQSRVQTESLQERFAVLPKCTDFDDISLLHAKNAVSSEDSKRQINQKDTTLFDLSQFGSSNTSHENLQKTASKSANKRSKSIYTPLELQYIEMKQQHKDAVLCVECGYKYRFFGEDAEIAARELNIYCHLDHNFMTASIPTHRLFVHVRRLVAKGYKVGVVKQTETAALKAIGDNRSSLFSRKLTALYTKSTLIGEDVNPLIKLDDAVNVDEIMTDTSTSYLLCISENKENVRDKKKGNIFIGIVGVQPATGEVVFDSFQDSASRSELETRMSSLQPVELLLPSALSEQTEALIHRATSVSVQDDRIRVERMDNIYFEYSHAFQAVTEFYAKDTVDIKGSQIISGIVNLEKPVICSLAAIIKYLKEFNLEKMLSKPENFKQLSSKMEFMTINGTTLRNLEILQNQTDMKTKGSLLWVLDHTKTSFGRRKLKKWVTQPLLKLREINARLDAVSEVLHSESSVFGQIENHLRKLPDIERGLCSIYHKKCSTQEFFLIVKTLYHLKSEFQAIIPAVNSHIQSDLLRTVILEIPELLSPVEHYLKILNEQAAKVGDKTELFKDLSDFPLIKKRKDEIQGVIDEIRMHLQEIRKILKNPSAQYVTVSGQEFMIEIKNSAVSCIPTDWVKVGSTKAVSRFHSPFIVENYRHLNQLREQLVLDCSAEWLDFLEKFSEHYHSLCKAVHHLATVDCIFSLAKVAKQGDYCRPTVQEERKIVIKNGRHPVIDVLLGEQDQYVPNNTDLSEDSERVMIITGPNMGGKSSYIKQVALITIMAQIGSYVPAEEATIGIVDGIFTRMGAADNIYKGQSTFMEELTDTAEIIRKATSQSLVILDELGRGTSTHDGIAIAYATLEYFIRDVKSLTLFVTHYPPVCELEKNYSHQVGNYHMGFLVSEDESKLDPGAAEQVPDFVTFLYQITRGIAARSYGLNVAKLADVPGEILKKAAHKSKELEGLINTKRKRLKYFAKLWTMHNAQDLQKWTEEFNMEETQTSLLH
Sequence of MutLgamma (MLH1-MLH3) (P40692 whole entry, chain 1 of 2): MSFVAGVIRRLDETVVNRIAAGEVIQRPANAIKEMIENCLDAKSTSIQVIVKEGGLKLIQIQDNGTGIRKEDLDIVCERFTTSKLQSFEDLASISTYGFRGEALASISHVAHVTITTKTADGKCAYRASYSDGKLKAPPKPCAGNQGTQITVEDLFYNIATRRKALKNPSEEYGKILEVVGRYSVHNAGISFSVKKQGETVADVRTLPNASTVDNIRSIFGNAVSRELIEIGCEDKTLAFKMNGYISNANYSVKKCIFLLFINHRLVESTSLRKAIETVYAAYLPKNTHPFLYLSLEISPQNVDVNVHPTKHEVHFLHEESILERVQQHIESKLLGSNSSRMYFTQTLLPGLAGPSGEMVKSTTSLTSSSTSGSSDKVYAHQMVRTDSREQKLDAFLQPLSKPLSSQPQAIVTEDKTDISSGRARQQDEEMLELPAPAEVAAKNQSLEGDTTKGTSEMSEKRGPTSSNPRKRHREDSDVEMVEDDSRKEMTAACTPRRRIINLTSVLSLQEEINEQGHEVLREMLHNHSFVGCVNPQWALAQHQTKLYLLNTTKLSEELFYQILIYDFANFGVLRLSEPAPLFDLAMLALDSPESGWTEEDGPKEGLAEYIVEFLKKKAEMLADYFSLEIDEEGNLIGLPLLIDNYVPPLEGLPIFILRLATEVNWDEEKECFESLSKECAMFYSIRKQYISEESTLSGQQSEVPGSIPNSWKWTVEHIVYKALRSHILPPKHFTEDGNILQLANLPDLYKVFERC
Sequence of MutLgamma (MLH1-MLH3) (Q9UHC1 whole entry, chain 2 of 2): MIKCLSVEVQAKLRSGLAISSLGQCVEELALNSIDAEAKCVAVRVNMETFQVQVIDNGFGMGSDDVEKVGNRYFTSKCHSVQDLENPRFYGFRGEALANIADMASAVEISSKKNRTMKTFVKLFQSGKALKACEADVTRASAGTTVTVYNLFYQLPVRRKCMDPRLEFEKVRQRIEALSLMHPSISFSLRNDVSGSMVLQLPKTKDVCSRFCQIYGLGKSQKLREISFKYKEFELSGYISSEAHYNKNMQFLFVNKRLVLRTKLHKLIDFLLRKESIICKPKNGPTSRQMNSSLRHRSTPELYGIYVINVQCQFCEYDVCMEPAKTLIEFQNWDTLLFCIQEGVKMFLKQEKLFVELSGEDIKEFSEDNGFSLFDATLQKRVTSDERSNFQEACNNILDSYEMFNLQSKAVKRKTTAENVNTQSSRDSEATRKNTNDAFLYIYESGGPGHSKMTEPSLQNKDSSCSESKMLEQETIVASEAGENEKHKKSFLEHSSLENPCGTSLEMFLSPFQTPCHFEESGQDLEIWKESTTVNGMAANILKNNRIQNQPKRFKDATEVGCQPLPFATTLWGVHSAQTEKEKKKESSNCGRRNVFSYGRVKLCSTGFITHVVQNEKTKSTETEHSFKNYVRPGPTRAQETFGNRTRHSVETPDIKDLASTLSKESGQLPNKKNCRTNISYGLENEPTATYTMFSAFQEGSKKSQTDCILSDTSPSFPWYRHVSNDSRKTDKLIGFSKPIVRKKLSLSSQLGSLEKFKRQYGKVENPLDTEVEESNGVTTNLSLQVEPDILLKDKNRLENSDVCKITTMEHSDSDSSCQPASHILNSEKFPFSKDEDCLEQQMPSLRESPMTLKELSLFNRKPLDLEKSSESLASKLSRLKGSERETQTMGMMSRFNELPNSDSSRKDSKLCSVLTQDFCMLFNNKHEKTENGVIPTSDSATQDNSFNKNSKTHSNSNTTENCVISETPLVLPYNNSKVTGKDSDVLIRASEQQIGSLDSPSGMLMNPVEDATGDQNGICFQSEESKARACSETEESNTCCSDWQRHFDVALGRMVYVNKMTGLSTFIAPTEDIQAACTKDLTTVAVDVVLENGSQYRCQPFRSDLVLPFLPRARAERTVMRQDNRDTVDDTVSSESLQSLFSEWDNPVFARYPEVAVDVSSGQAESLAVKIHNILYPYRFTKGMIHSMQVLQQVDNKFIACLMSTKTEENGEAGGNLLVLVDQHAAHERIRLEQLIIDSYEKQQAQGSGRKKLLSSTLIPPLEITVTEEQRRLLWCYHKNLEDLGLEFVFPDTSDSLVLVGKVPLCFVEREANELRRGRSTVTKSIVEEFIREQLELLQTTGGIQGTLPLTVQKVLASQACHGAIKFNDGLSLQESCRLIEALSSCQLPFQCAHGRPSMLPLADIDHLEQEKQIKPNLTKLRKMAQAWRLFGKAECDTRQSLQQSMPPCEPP

B1: Holliday junction (PC1253/PC1254/PC1255/PC1256) (structured_DNA)
DNA 1: TGGGTCAACGTGGGCAAAGATGTCCTAGCAATGTAATCGTCTATGACGTT
DNA 2: TGCCGAATTCTACCAGTGCCAGTGATGGACATCTTTGCCCACGTTGACCC
DNA 3: GTCGGATCCTCTAGACAGCTCCATGATCACTGGCACTGGTAGAATTCGGC
DNA 4: CAACGTCACAGACGATTACATTGCTACATGGAGCTGTCTAGAGGATCCGA
binds: [1] | [2] | [3]
